pKd: −log10 of the molar value.
Columns and labels:
Assay in all cases: Kd (EC50 corrected by depletion factor)
PPIE = PPIE (UniProt Q9UNP9)
Summary of the method: (§1)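 To obtain EC50, data were fitted with a four-parameter log-logistic model; Kd was then EC50 multiplied by a protein-dependent depletion factor. Beforehand, free RNA oligos (0 nM to 30 μM) were pre-incubated with HEK293-FT lysate (2.5 mg protein/well) for 1 h at 4°C. The lysate then spent 30 min at 4°C with the same 5′-amino-C6 oligos coupled to NHS-Sepharose beads, and bound proteins were quantified by label-free LC-MS/MS, normalised to the control.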

MRPS25 = MRPS25 (UniProt P82663)
Summary of the method: as §1

SKIV2L = SKIV2L (UniProt Q15477)
Sequence of SKIV2L (Q15477 whole entry): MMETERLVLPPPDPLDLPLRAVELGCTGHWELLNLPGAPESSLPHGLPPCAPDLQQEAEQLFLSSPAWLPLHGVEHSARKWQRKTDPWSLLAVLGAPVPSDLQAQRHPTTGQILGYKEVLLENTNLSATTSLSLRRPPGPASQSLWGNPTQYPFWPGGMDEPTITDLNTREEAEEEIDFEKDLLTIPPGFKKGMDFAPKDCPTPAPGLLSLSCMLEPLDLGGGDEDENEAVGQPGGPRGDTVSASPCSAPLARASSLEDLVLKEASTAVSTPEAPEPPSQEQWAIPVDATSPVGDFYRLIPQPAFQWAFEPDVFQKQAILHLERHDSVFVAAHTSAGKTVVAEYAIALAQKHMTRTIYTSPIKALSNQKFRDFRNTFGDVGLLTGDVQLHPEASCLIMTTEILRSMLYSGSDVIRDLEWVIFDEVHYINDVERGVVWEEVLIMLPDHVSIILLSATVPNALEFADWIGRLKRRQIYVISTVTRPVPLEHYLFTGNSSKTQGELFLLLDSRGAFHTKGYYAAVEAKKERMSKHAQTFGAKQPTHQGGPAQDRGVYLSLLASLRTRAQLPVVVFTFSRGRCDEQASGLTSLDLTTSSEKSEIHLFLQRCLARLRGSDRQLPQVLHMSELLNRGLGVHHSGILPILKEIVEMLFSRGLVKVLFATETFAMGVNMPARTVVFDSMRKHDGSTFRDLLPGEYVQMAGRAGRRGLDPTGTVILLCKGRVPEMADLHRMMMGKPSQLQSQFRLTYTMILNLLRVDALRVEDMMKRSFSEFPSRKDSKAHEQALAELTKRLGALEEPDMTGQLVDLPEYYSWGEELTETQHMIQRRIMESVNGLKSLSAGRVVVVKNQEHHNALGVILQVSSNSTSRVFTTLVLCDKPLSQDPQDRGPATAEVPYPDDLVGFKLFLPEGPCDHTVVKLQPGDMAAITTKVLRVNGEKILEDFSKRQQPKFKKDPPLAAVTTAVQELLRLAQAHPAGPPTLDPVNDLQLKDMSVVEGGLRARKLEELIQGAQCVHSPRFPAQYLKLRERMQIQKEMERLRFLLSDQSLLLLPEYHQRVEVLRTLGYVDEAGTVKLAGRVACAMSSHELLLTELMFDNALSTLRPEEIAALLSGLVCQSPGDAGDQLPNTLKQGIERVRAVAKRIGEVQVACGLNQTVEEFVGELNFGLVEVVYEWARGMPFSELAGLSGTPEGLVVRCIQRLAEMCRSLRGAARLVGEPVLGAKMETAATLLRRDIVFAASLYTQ
Summary of the method: as §1

LSM6 = biological target: T1, LSM6 (UniProt P62312)
T1 sequence: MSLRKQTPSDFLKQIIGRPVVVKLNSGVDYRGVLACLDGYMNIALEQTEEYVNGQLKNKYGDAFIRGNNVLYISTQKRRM
Summary of the method: as §1

ERAL1 = biological target: T2, ERAL1 (UniProt O75616)
T2 sequence: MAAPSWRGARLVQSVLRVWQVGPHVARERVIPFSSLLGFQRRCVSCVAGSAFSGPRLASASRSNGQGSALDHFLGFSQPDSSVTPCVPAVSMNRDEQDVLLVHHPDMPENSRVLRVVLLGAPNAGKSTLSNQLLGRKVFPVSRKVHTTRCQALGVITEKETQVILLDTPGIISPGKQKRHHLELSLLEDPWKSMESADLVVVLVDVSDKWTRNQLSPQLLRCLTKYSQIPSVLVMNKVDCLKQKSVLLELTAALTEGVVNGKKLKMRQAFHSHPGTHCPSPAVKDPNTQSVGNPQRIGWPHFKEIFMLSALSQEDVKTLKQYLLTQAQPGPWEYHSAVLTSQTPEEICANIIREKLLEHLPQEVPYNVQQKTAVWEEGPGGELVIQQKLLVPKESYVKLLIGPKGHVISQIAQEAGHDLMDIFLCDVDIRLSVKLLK
Summary of the method: as §1

CNBP = CNBP (UniProt P62633)
Sequence of CNBP (P62633 whole entry): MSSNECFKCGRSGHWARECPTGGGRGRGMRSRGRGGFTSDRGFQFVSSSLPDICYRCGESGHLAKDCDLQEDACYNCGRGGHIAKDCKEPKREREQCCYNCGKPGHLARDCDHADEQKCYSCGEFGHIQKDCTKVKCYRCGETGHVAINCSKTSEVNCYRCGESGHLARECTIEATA
Summary of the method: as §1

PTCD3 = PTCD3 (UniProt Q96EY7)
Summary of the method: as §1

FASTKD2 = biological target: T3, FASTKD2 (UniProt Q9NYY8)
T3 sequence: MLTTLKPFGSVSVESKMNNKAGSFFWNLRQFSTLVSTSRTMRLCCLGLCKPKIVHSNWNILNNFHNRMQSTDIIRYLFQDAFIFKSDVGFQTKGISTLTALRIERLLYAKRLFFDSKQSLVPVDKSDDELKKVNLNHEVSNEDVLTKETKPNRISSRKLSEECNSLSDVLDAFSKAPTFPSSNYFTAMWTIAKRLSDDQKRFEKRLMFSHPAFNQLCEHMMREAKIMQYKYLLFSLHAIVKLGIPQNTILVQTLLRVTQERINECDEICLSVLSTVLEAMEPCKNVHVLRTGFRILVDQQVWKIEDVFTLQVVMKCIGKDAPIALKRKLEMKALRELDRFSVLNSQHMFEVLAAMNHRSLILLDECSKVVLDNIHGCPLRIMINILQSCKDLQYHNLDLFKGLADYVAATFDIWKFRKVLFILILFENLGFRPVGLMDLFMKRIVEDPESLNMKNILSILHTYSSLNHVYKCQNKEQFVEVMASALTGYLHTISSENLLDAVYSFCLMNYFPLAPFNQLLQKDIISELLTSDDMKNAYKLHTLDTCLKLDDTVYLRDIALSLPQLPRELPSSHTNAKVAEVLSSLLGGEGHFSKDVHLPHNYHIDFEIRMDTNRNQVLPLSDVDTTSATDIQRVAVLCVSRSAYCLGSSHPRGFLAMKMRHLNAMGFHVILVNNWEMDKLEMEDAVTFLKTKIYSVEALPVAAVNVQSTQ
Summary of the method: as §1

CXorf57 = CXorf57 (UniProt Q6NSI4)
Sequence of CXorf57 (Q6NSI4 whole entry): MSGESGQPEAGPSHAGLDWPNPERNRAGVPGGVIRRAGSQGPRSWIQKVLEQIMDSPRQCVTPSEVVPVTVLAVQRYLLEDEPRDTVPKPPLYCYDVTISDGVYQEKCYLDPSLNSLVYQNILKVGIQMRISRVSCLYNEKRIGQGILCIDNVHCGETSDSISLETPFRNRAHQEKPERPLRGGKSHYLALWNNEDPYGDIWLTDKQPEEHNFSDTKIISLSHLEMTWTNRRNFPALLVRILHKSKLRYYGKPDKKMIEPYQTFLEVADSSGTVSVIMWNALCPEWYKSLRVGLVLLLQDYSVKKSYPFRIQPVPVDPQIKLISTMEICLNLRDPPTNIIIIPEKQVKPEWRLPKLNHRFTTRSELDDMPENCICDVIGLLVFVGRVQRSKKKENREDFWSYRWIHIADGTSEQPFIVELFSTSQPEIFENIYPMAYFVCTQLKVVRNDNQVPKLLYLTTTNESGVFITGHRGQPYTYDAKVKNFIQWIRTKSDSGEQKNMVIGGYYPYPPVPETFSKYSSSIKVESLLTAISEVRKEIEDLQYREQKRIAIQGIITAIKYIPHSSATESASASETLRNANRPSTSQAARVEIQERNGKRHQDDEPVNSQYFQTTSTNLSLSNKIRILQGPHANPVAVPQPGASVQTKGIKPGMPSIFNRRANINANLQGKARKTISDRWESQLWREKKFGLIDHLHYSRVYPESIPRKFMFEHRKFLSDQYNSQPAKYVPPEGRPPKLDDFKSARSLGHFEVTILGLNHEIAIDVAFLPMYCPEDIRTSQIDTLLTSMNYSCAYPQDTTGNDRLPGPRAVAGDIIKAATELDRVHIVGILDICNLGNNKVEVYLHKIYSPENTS
Summary of the method: as §1

NONO = biological target: T4, NONO (UniProt Q15233)
T4 sequence: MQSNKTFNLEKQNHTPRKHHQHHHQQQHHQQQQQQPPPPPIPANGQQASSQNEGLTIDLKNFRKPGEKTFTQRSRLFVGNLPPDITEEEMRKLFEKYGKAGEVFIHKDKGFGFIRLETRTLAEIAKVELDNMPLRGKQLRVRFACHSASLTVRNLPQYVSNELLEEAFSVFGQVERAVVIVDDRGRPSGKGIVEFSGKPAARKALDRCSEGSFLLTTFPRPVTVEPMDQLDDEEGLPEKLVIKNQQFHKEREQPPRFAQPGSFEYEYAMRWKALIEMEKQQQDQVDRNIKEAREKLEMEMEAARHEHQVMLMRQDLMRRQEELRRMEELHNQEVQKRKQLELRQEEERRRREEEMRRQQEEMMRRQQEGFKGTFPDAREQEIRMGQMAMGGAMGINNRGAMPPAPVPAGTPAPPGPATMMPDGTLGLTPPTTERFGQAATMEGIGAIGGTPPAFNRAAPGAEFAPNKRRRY
Summary of the method: as §1

U2AF1 = biological target: T5, U2AF1 (UniProt Q01081)
T5 sequence: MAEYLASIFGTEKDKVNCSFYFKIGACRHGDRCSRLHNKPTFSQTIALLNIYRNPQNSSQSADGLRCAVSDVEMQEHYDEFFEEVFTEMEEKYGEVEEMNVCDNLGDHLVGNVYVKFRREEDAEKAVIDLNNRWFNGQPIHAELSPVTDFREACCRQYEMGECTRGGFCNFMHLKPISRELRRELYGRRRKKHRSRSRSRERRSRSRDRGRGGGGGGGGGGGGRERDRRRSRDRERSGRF
Summary of the method: as §1

RPSA = RPSA (UniProt P08865)
Summary of the method: as §1

IGF2BP2 = IGF2BP2 (UniProt Q9Y6M1)
Sequence of IGF2BP2 (Q9Y6M1 whole entry): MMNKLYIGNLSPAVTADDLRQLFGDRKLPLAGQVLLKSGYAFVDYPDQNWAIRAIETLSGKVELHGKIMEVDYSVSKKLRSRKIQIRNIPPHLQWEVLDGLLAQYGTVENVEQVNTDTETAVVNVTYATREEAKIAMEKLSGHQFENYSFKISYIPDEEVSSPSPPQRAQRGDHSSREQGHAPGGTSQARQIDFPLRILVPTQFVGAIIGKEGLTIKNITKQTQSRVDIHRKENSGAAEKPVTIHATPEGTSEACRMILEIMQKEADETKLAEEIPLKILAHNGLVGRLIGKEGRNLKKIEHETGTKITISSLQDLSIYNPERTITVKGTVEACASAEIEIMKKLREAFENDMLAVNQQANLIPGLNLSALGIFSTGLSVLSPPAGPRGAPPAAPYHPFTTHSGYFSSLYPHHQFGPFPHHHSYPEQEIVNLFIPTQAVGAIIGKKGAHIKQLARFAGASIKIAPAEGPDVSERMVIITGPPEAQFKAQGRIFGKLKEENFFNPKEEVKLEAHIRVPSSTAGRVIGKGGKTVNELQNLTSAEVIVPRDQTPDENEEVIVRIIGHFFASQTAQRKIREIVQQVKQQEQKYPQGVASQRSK
Summary of the method: as §1

GNB2L1 = GNB2L1 (UniProt P63244)
Summary of the method: as §1

MRPL48 = MRPL48 (UniProt Q96GC5)
Summary of the method: as §1

Sequence of PPIE (Q9UNP9 whole entry): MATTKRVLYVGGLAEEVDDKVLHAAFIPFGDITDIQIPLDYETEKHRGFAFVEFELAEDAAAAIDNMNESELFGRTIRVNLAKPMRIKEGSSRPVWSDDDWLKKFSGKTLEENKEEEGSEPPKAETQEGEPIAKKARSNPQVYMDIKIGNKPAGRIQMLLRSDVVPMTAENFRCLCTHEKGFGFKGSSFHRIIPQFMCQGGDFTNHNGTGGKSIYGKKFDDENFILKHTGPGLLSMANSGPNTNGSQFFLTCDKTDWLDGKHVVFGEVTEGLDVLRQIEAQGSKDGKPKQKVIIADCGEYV

**Q.** What does the source list for UAUUUAU?
**A.** pKd (PPIE): 6.69; pKd (MRPS25): 7.91; pKd (SKIV2L): 6.04; pKd (LSM6): 6.56; pKd (ERAL1): 7.59; pKd (CNBP): 5.90; pKd (PTCD3): 7.56; pKd (FASTKD2): 5.41

**Q.** AAUAAA was tested. Which pKd (CXorf57) did it give?
**A.** 5.98

**Q.** What about the pKd (NONO) of the same sequence?
**A.** 9.52

**Q.** And the pKd (U2AF1)?
**A.** 6.69

**Q.** CUGUCCU was tested. Which pKd (RPSA) did it give?
**A.** 6.73

**Q.** And the pKd (IGF2BP2)?
**A.** 6.03

**Q.** And the pKd (GNB2L1)?
**A.** 6.09

**Q.** What about the pKd (MRPL48) of the same sequence?
**A.** 7.02

Source: the supplement of paper PMC6379048
